Reference: US20200024360A1 (Janssen / Centocor, published 2020)

T1: Cynomolgous monkey PSMA, full length (Macaca fascicularis, UniProt Q04609 1-750 (human entry))
T1 construct: On transfected HEK293F cells; also called cyno PSMA; EHH56646.1
T1 chain: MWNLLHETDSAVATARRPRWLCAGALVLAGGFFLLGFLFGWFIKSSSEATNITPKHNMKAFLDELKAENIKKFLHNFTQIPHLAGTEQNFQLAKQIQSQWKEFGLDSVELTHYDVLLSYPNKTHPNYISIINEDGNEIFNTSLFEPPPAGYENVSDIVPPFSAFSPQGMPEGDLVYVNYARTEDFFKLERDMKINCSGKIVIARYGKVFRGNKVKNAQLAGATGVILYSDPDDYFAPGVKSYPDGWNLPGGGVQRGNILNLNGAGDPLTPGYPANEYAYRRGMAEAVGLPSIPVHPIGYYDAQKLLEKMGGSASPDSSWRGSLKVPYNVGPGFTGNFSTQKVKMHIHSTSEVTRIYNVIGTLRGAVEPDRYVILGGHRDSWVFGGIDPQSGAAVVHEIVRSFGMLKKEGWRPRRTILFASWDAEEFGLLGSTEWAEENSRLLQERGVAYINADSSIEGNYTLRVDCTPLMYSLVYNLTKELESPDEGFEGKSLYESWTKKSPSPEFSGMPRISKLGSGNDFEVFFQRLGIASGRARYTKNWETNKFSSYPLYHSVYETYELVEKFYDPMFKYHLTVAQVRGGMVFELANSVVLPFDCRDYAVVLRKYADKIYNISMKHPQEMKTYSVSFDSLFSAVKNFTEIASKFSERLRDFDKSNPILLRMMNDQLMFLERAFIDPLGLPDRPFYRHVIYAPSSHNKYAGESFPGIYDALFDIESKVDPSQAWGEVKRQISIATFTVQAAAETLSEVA

T2: chimpanzee PSMA, full length (Pan troglodytes, UniProt Q04609 1-750 (human entry))
T2 construct: On transfected HEK293F cells; also called chimp PSMA; H2Q3K5_PANTR
T2 chain: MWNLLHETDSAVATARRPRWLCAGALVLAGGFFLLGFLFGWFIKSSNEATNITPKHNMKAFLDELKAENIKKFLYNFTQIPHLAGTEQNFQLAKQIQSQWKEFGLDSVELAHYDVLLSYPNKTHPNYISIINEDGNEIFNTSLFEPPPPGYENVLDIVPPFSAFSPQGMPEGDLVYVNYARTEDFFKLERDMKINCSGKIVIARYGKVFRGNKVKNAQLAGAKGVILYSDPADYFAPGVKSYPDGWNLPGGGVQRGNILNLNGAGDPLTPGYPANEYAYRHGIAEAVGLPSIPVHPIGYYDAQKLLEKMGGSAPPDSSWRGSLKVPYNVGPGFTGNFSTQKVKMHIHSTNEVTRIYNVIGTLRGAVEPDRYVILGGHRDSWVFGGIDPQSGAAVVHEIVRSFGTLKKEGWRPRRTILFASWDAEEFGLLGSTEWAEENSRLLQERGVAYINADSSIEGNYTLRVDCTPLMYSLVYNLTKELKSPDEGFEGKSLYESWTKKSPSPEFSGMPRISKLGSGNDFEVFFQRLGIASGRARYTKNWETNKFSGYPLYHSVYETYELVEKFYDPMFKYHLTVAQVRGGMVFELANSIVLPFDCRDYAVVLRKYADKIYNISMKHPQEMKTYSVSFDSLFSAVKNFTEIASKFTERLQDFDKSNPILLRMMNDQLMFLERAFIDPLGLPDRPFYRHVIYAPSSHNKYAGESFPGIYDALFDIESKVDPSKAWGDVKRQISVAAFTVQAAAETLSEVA


Key:
[1] = target: T3, human PSMA (prostate specific membrane antigen), full length (human, UniProt Q04609 1-750); test: flow cytometry, bispecific antibody titrated on LNCaP cells (human PSMA), anti-human kappa light chain PE
T3 construct: On LNCaP or C4-2B cells (endogenous) or transduced HEK293F cells; also called FOLH1_HUMAN; hPSMA
Protocol: (§1) PSMA×CD3 bispecific antibodies were tested for binding to PSMA positive cell lines LNCAP, human PSMA-HEK, Chimpanzee-PSMA-HEK and Cynomolgous monkey PSMA-HEK. To assess the binding capabilities of the PSMA bispecific antibodies, the cell-binding assay was utilized (described previously). Briefly, PSMA expressing tumor cells are bound by bispecific antibodies at known concentrations and the bound antibody is detected by an anti-human kappa light chain PE conjugated detection reagent (Invitrogen). The Mean Fluorescents Intensity (MFI) is the measure of bound bispecific antibody. The MFI is converted to a relative EC₅₀. EC₅₀ is a commonly used dose-response curve, where the half maximal effective concentration or the EC₅₀ point is defined as the inflection point of the curve. EC₅₀ s were determined by measuring cell bound bispecific and known concentrations. […] The dose response curves were then diluted down to that of background or no bispecific binding. The inflection point of this curve reflects the EC₅₀ point. The calculated EC₅₀ is determined by taking the ug/ml amount of bispecific antibody at the EC₅₀ point and converting it to a molarity value based on the MW of the bispecific antibody. Bispecific antibodies were normalized for protein concentration and then incubated with the same number of cells expressing either human or cyno PSMA. The MFI at each concentration was collected by flow cytometry and plotted as a function of concentration. Data was transformed via log 10 and then plotted. Nonlinear regression of binding curves was done to determine EC₅₀ s. These relative values were used for ranking PSMA binding to target cells.

[2] = target: T1, Cynomolgous monkey PSMA, full length; test: FACS, whole cell binding, cyno PSMA HEK
Protocol: as §1

[3] = target: T3, human PSMA (prostate specific membrane …); test: FACS, whole cell binding, LNCaP
Protocol: as §1

[4] = target: T2, chimpanzee PSMA, full length; test: FACS, whole cell binding, chimp PSMA HEK; calculated EC50
Protocol: as §1

[5] = target: T3, human PSMA (prostate specific membrane …); test: FACS, whole cell binding, LNCaP; calculated EC50
Protocol: as §1

[6] = target: T1, Cynomolgous monkey PSMA, full length; test: FACS, whole cell binding, cyno PSMA HEK; calculated EC50
Protocol: as §1

[7] = target: T2, chimpanzee PSMA, full length; test: FACS, whole cell binding, chimp PSMA HEK
Protocol: as §1

| Binder | EC50 (read off the curve) [1] [µg/mL] | EC50 [2] [µg/mL] | EC50 [3] [µg/mL] | EC50 [4] [nM] | EC50 [5] [nM] | EC50 [6] [nM] | EC50 [7] [µg/mL] |
| --- | --- | --- | --- | --- | --- | --- | --- |
| PS3B9 (M84) (bispecific antibody, human IgG4 S228P, kappa, lambda, F234A L235A, also called PSMB127 x CD3B217) heavy chain, PSMA arm (PSMB127): not shown light chain, PSMA arm (PSMB127): not shown heavy chain, CD3 arm (CD3B217): EVQLLESGGGLVQPGGSLRLSCAASGFTFNTYAMNWVRQAPGKGLEWVARIRSKYNNYATYYADSVKGRFTISRDNSKNTLYLQMNSLRAEDTAVYYCVKHGNFGNSYVSWFAYWGQGTLVTVSSASTKGPSVFPLAPCSRSTSESTAALGCLVKDYFPEPVTVSWNSGALTSGVHTFPAVLQSSGLYSLSSVVTVPSSSLGTKTYTCNVDHKPSNTKVDKRVESKYGPPCPPCPAPEAAGGPSVFLFPPKPKDTLMISRTPEVTCVVVDVSQEDPEVQFNWYVDGVEVHNAKTKPREEQFNSTYRVVSVLTVLHQDWLNGKEYKCKVSNKGLPSSIEKTISKAKGQPREPQVYTLPPSQEEMTKNQVSLTCLVKGFYPSDIAVEWESNGQPENNYKTTPPVLDSDGSFLLYSKLTVDKSRWQEGNVFSCSVMHEALHNHYTQKSLSLSLGK light chain, CD3 arm (CD3B217): QAVVTQEPSLTVSPGGTVTLTCRSSTGAVTTSNYANWVQQKPGQAPRGLIGGTNKRAPGTPARFSGSLLGGKAALTLSGAQPEDEAEYYCALWYSNLWVFGGGTKLTVLGQPKAAPSVTLFPPSSEELQANKATLVCLISDFYPGAVTVAWKADSSPVKAGVETTTPSKQSNNKYAASSYLSLTPEQWKSHRSYSCQVTHEGSTVEKTVAPTECS | ~2 |  |  |  |  |  |  |
| PS3B26 (bispecific antibody, human IgG4 S228P, kappa, lambda, F234A L235A, IgG4 PAA; PSMA arm chains first, then CD3 arm (F405L, R409K); also called PSMB126 x CD3B219) heavy 1: not shown light 1: not shown heavy 2: EVQLVESGGGLVQPGGSLRLSCAASGFTFNTYAMNWVRQAPGKGLEWVARIRSKYNNYATYYAASVKGRFTISRDDSKNSLYLQMNSLKTEDTAVYYCARHGNFGNSYVSWFAYWGQGTLVTVSSASTKGPSVFPLAPCSRSTSESTAALGCLVKDYFPEPVTVSWNSGALTSGVHTFPAVLQSSGLYSLSSVVTVPSSSLGTKTYTCNVDHKPSNTKVDKRVESKYGPPCPPCPAPEAAGGPSVFLFPPKPKDTLMISRTPEVTCVVVDVSQEDPEVQFNWYVDGVEVHNAKTKPREEQFNSTYRVVSVLTVLHQDWLNGKEYKCKVSNKGLPSSIEKTISKAKGQPREPQVYTLPPSQEEMTKNQVSLTCLVKGFYPSDIAVEWESNGQPENNYKTTPPVLDSDGSFLLYSKLTVDKSRWQEGNVFSCSVMHEALHNHYTQKSLSLSLGK light 2: QTVVTQEPSLTVSPGGTVTLTCRSSTGAVTTSNYANWVQQKPGQAPRGLIGGTNKRAPGTPARFSGSLLGGKAALTLSGVQPEDEAEYYCALWYSNLWVFGGGTKLTVLGQPKAAPSVTLFPPSSEELQANKATLVCLISDFYPGAVTVAWKADSSPVKAGVETTTPSKQSNNKYAASSYLSLTPEQWKSHRSYSCQVTHEGSTVEKTVAPTECS |  | 0.371 | 0.0715 | 0.34 | 0.5 | 2.6 | 0.05 |
| PS3B4 (M52) (bispecific antibody, human IgG4 S228P, kappa, lambda, F234A L235A, also called PSMB122 x CD3B217) heavy chain, PSMA arm (PSMB122): not shown light chain, PSMA arm (PSMB122): DIQMTQSPSSLSASVGDRVTITCRASQSIDRWLNWYQQKPGKAPKLLIYAASSLQSGVPSRFSGSGSGTDFTLTISSLQPEDFATYYCQQSPRYPLTFGQGTKVEIKRTVAAPSVFIFPPSDEQLKSGTASVVCLLNNFYPREAKVQWKVDNALQSGNSQESVTEQDSKDSTYSLSSTLTLSKADYEKHKVYACEVTHQGLSSPVTKSFNRGEC heavy chain, CD3 arm (CD3B217): EVQLLESGGGLVQPGGSLRLSCAASGFTFNTYAMNWVRQAPGKGLEWVARIRSKYNNYATYYADSVKGRFTISRDNSKNTLYLQMNSLRAEDTAVYYCVKHGNFGNSYVSWFAYWGQGTLVTVSSASTKGPSVFPLAPCSRSTSESTAALGCLVKDYFPEPVTVSWNSGALTSGVHTFPAVLQSSGLYSLSSVVTVPSSSLGTKTYTCNVDHKPSNTKVDKRVESKYGPPCPPCPAPEAAGGPSVFLFPPKPKDTLMISRTPEVTCVVVDVSQEDPEVQFNWYVDGVEVHNAKTKPREEQFNSTYRVVSVLTVLHQDWLNGKEYKCKVSNKGLPSSIEKTISKAKGQPREPQVYTLPPSQEEMTKNQVSLTCLVKGFYPSDIAVEWESNGQPENNYKTTPPVLDSDGSFLLYSKLTVDKSRWQEGNVFSCSVMHEALHNHYTQKSLSLSLGK light chain, CD3 arm (CD3B217): QAVVTQEPSLTVSPGGTVTLTCRSSTGAVTTSNYANWVQQKPGQAPRGLIGGTNKRAPGTPARFSGSLLGGKAALTLSGAQPEDEAEYYCALWYSNLWVFGGGTKLTVLGQPKAAPSVTLFPPSSEELQANKATLVCLISDFYPGAVTVAWKADSSPVKAGVETTTPSKQSNNKYAASSYLSLTPEQWKSHRSYSCQVTHEGSTVEKTVAPTECS | ~2 |  |  |  |  |  |  |
